Laboratory results taken from the DeepSol protein solubility set.

assay: soluble on expression in E. coli; label from the status in PepcDB or PDB records

Sequence	soluble on expression in E. coli
MGSDKIHHHHHHMKVAKFGGSSLASASQIKKVFDIVQADKQRKFIVVSAPGKRSGADTKVTDALIAYYKAYKSADEKGIHYYQNWIIERFREIYDELGLKSPVINQIAENINHLAQLDLDNVFTYDTFLAAGENNNAKLVADFFNHSGLPSRYVHPSDAGIMVSSDPGNARLLGGAYEHIKYLNELEETLIIPGFFGITKEGEVCTFSRGGSDITGSIIAAGVRAELYENFTDVNGIFAAHPGIVKNPAYISELTYREMRELAYSGFSVLHDEALVPAYRAHVPLVIKNTNNPDHPGTKIVVQRETKGSPVVGIASSSAFSSLYVSKYLMNREVGFGRKVLSVLENLGVRFEHMPTGIDDMSIIIRSRYLTQPISKALISNLTESLHPDEVYIDRDFSIITIVGEDMKEHVGVTARATAALSKQGISIAMLSQGSSEVSVMFIVKEKYEKEALKAIYSAFFD	not soluble
MEPGVDGARKQIAEVVAERIERLILDGVLKAGQALPSERRLTEKLGVSRTALREGLRVLWARQIIHTAQGKGSYVAQISQVDAGPLVHLFNSQPRTLYDLLEVRALLESESARLAAIRGTDADFIMIRRRYDEMLAAHGRETDSATHAHLDHAFHLAICQASHNAVLVHTLQSLTDLLLGSVFACVNNLYHREPHKRHIDQQHERLFLAVLAREPEQAHQAARAHVDSVRQSLAEIEQEEQRLVRATLRLEGWV	not soluble
MNLMLCCTPLQVLIARKIIELHPNEQFFGVMFGGVWDKKRTLYASKLAEVCSDSMNIDTGKDLKGFDFLKLMRQLKNKITHKGFDKVFLANLNSLWLQTYLSHVSFKELYTFDDGSDNIFPHPNLLREPGTFKYKLIKAFIGDKYSVNKLFKKIKKHYTVYPNYKNIVSNIEPISLWDNQIDCEIDGEVSFFIGQPLLNTKEENISLIKKLKDQIPFDYYFPHPAEDYRVDGVNYVESELIFEDYVFKHLSNKKIIIYTFFSSVAFNLLSHPNVEIRFIRTSIPRWQFCYDSFPDLGLTIYKEI	not soluble
MSAKNVLKMANRNSANKRDILGDLLSLSSNKTVNLNEMAHGQGKRKMASIDGQKENPKRIKMSQHMTAKEVKIPLLRTPDEEARKIEKLRREARIKRSKEVHYDAAEQQQIMMNYEWTVQMEEQEKLRKKVEKKH	not soluble
MGSDKIHHHHHHLPLLLPVGSQILRNKMRSKPRILIALSSVGLGGAERQGLMFAEYLKCKHSFDVLVSTFGGEGKVSLLCKETGIQHVNIAYPLLGHRWEVWWKLISTALTLRKIKPDCIVSYCMPANAACAAVWRLTGARACIWGQRDAGLQKELLTPIPLAPRLATCFVSNSPHGAAFLENQLAIPRHKISTIPNAVKLNVAQLSRTEWRSRLKISHDAMIVTMVSNLSFRKDHETLLKAWRIGLDNQLFPQNTKLVLCGRDDSNAPVIRKLAGKLHLDNHIRFAGATDDVAGILNASDIAAFSFISEGLPNVVIESMAAGLPVVATDIPGVRAAIGSCDDNILVPPKDPAAMAHGIAKILQDPALRSRAAAANITQATSTFAPDVVFSAFAKLILSNI	not soluble
MERKINRREKEKEYEGKHNSLEDTDQGKNCKSTLMTLNVGGYLYITQKQTLTKYPDTFLEGIVNGKILCPFDADGHYFIDRDGLLFRHVLNFLRNGELLLPEGFRENQLLAQEAEFFQLKGLAEEVKSRWEKEQLTPRETTFLEITDNHDRSQGLRIFCNAPDFISKIKSRIVLVSKSRLDGFPEEFSISSNIIRFKYFIKSENGTRLVLKEDNTFVCTLETLKFEAIMMALKCGFRLLTSLDCSKGSIVHSDALHFIK	soluble
QALASDSEEADEVPEWLREGEFVTVGAHKTGVVRYVGPADFQEGTWVGVELDLPSGKNDGSIGGKQYFRCNPGYGLLVRPSRVRRAT	soluble
MADAAEGEQPKLSKKELNKLARKAKKDEKAGEKGGNQQQAAAMDQEDASKDFYGSYGLVNSKEKKVLNFLKVKEINVSNATKDVWVRGRIHTTRSKGKNCFLVLRQGVYTVQVAMFMNEKISKQMLKFVSSISKESIVDVYATINKVDNPIESCTQKDVELLAQQVFVVSTSAPKLPLQIEDASRRAPTDEEKASEQENQLAVVNLDTRLDNRVIDLRTPTSHAIFRIQAGICNQFRNILDVRGFVEIMAPKIISAPSEGGANVFEVSYFKGSAYLAQSPQLYKQMAIAGDFEKVYTIGPVFRAEDSNTHRHMTEFVGLDLEMAFNFHYHEVMETIAEVLTQMFKGLQQNYQDEIAAVGNQYPAEPFQFCEPPLILKYPDAITLLRENGIEIGDEDDLSTPVEKFLGKLVKEKYSTDFYVLDKFPLSVRPFYTMPDAHDERYSNSYDMFMRGEEILSGAQRIHDADMLVERAKHHQVDLAKIQSYIDSFKYGCPPHAGGGIGLERVTMLFLGLHNIRLASLFPRDPKRLTP	not soluble
MGSDKIHHHHHHMPIIATAAWSIPKKVADRFAQGGSSLTRYASVFDGVEVNSTFYRRHKTSTFATWEHSVPDAFRFAVKIPKEITHTSAMRDIAEPFDTFLEDIAPLGEKRGPLLCQLPPSLTFDVEVLQTAFKTMRDADDGPIVIEVRHKSWASAEALDLLKTYRIDRVLADPAPVWPVEDFDTPPKYVRLHGKPKIYYSSYTDDEIKSFSALLAPDSWCVFDNTASGAAIENALNMAEIR	not soluble
MGIFETMSQVRRLPQALAAAVATPPALAGSGTLRGLIGLDDSLGEAVTTRAEALTIPAVLRARNLLSTTVARTPLVCDGTLPPFVPVAAPPGAATMQTPFHRMLATADDLLFNGVACWALDRDESGTCIGAIHIPLDTWQIEENTVRVNGKAVDPMEVCIFVGIHGGLLTHASETFTDARNLVRAAARVAQNPAALIELRQTNNAQLSPDDVDRIINGYVAARRGRNSGVGFSSSGLEVHEHEMAKENLLIEGRNAAAVDVARAMNVPAAFIDATVGGTSLSYQNAASRMIELVTFGVEPLMSAIEARLNQPDMHADHLANPLKFDPAALLDAIPTTPTIGAQPHGENS	not soluble
MAHHHHHHMIPHICVNAANYSHTQFEECLTHMCDLSEELSAFKRTAVSLKRQATGDAETSKLALQYMEEALEKVLHVTQGVKEGNKTIGTAAAVKKSVIEAKIASDIADEEASKVERKLDKATRDAGNAEKNLQRILIYTARKACSSEGISSQDEEVKEAQCNVSTEIVYSCTRRPLKIKSDTLRKTYERLKSFTRTPNKTINEHLPKCHMWTELLEPAVASLTDMEKSASVARAYRNQVIKARGEAQQAAWTVGVTVQDVDGLDEVSEEDDFALAPVVLVAVLIVGAVLIDQHP	not soluble
MDDSQESSFSVSKYETNDDGSMGQFISINECEREIQMLERDIRQQKESSANAKTAITFDQLRKIHTLSTLLGPHKELFFDRICRAADIQRASLKNRLKSNINKFEPSTPLSFQPGFDSQSSLSTTSESQNFVVTPTTLSSLLNNHTRKNHIEMLAPLASEEELMRFPAERQFDLMQIGFSYDEVKQLLEMFEKFKNDVQEINRLHTLTQILNQFCNYISMYAPPNLKMISSAFNLLELGNSAHEVKRVLLKARRREESEESDVSFSKKPRPSSRSPASPNRDDLLLGLDRSPPSDDGTQKV	not soluble
MSFQVSVAVNDGPFQKKSVTPNTTIGDLNNDAILIWKDTAIVYDISDESKNFGPTVTLEQLGVTQISMVYIYTTAFPCPSGDLRSIVPAQVRLISQFASAASSIFNGQSSSSAQSAQRTRRVEQDDEGEKSMFSRKLLDSPATFKALSENMFFRLKNEPHKLGYGLPELVERFLAKKDMTYKEFEQMFRSYVEEEVHKEEIIKNNPNSAEAKMFLEAKRNKELIDEQYLHSMTHHPEDMIAVTMLYINLTINGVPVKAFIDSGAQKSIMSMACAERCGLNGLIDRRFQSMARGVGGTEKIEGKIHLCDVKVEDAHFSCPFEVMARREMDLLIGLNVLRKHGCCINLKTSRLEFGNGTTTPFLQSNEIDSHLKEIMALPEEEMQFEDGST	not soluble
MSSGVPVLHWNFGIGPITCHAWNKDRTQIAVSASSNDIHIFEWRNGDWQSIHTLSEHDLPVTGLDWGTKTNRIVSCSQDKNAFVWTFDKNVWKPELVLVRFNRAATYVKWSPLENKFAVGSGAKLVSVCYYEKENDWWVSKQIKKPIRSTVTCLDWHSNNVLLAVGSCDFKCRVFSAYVKEVDEKPSPNPWGQKMPFGQLMSEYSVGGWVHRVAFSPSGCRLAFVSHDSSVSFVDSTVDSQKVQNLLTIHLPFTTVEWITENSVVTAGHDCSPVLFVVSQDVLKEVCKLDVPSAAKSSTVNSALQLFKNIDRNNAAEKINVALKTLHQNRITQILPHSGTVGNVVKFTTCGTDGIVALWDLKNHPSLV	not soluble
MGSDKIHHHHHHVFDKNLRNSFFAEPYSSEPLAIRIREVLNGKVGFYSVGLYPASLAYNCALQNEGFNILLAPRDGRELFGAFSDIDLSEMDNGIKNKIESMAIPNEDKSGRYNTLKDLLINCELVVLSSNSKHIITDLDLAFKLRKELNRDNVLIACLVGSFCHDHNLNESFVLCEKLNKLAFFSGFHRHGALRNPLDSFTANFCHPDSMNAILGAKLLNKISPNIQVSAGIHNVEGQYIKAAKNISSIFAGFGHTFHKNNPGLLPTLLTLLLDQCLDQAAYVSMSRTDREDLYSKQPFPITELGYSVQRIEASYVKDGDFVQVRDHTFTQLKAMVADVRGSMMLPVSGNPTRNFQAGQVLAERMIEYKRCPKGVDEFIEWCERSGLKRGALEGINSLNYWPNILRKYSIPLNNSSMINLLYMCILGPVEIKNCIYNVMSSSRELANYCQESVKSSQNKKISEALDNFHLKTSVDFVTKSLIDDDKLFFENNEIGFDNPLGAQNMPIYNKVIDYMETYLLESNL	not soluble
MKKKIIKKKSAAAPASKIPDDFEMPMARVADEDDVAEDYKVVDMSEIAAPIIEFEMPNLVEKSPEEFKNSEVTGEASREVSVKTPKKVTKRVRKSSKTDKTDQIPLTAEKLNNELVALRATCLTAKNQLMSRIVRQKKQLESKKSQKVDGKSKEERDRKIARLVEEILGLKTFDKDSVAKFAALNTKSLAELKINGKTEVAERLMYKLVCQSIIVEKIQSIREKYTEWNKTAAFFMQRLGQQYANKPEKKSKKSTEKKELNIENLEDLNNEDEDSENEKEEEIEENEEDYDQSDIEMLDSDEEEAGEEAAKNRRNLLLGLIGVQEDKNRPSLAPKKRKLVEEEDEEVETVKNQKKMKQIFEKELKSKEVKNPKKSNKSTKKPTKSAPIVKKVEEKKVEENEVSDDESDQKTLVMKVDLSKGGKIAKAQKFSTTAPKSAKIVAPVSEDENDDDESSSFFLPKSGVVAPRKIIPKKPSENVEKVDKRFQKGTQKKSEAVVEKKKGSSKSAVSGEMHPSWIASQLKKKELASAKPCGKKITFGDDEEE	not soluble
MKFQCSSCGLRMDSLHFKQEGLMNPKLTSICDICRTRNLNPEEYSNNAVSTFAQSLLYTFVGADKKQDQLNFIVKNKKARKKYEAFLQDYDGNEIARQQIKRSDFNLAVIKSEDGQNDYVPNQDITFEQNLKKMGLEINFQLNEVDFIDRERIRAKYKYRCQYCGRRGHSVDHKDPVSLSHNNSLDNLTLACAECNRIKSDMPYKLFIQLNDQISDINKKLVKYENALGTLREEFEHRRRYLAAQVHLKGIINDPELNEIRKQNKSLQDAIDSLQSDYDDLRQIRKTYFDTGWKLARIKENNDIILEHHHHHH	not soluble
MGSSHHHHHHSAGENLYFQGQQGDLMPQSALFTGIIPPVSTIFTADGQLDKPGTAALIDDLIKAGVDGLFFLGSGGEFSQLGAEERKAIARFAIDHVDRRVPVLIGTGGTNARETIELSQHAQQAGADGIVVINPYYWKVSEANLIRYFEQVADSVTLPVMLYNFPALTGQDLTPALVKTLADSRSNIIGIKDTIDSVAHLRSMIHTVKGAHPHFTVLCGYDDHLFNTLLLGGDGAISASGNFAPQVSVNLLKAWRDGDVAKAAGYHQTLLQIPQMYQLDTPFVNVIKEAIVLCGRPVSTHVLPPASPLDEPRKAQLKTLLQQLKLCCGRTRAPPPPPLRSGC	soluble
EHGWCGHLCPLGAAYGVIGRKSLLRVTAVRREDCTKCMDCFYVCPEPEVLRQPLKEGDRRVMVQNCISCGRCLDVCPEQVFEFKNRLNVKNID	not soluble
